Where two headings read alike, the source gives them in different places. Ends that are not written are not given here.
Legend:
Format in all cases: cell-based
[1] = molecular target: T1, human GLP-1 receptor (hGLP-1r) (Homo sapiens, UniProt P43220); assay: BSA-cAMP assay, cells expressing human GLP-1 receptor; conditions: BSA-cAMP assay
T1 construct: expressed in transfected cells
Experimental: (§1) One basic cAMP assays was performed, differing in the medium used for the assay, the “BSA-cAMP assay”:
(§2) BSA-based assay medium: 0.1% bovine serum albumin (BSA) in
(§3) In certain aspects, the assay can also be carried out in medium supplemented with serum albumin that corresponds to the receptor being tested, e.g., human serum albumin for testing cAMP activity at hGIPr or hGLP-1r, rat serum albumin for testing cAMP activity at rGIPr or rGLP-1r, and so on. […] All sample dilutions were made in duplicate.
(§4) A frozen cryo-vial of cells expressing the receptor of interest was thawed rapidly in a water-bath, transferred to pre-warmed assay media and spun at 240×g for 5 minutes. Cells were re-suspended in assay buffer at an optimized concentration (e.g., hGLP-1r and hGIPr cells at 0.5×10^5 cells/ml).
(§5) To this, 5 μL cell suspension was added and the plates incubated at room temperature for 30 minutes.
(§6) cAMP levels were measured using a commercially available cAMP dynamic 2 HTRF kit (Cisbio, Cat #62AM4PEJ), following the two step protocol as per manufacturer's recommendations. In brief; anti-cAMP cryptate (donor fluorophore) and cAMP-d2 (acceptor fluorophore) were made up separately by diluting each 1/20 in conjugate & lysis buffer provided in the kit. 5 μL anti-cAMP cryptate was added to all wells of the assay plate, and 5 μL cAMP-d2 added to all wells except non-specific binding (NSB) wells, to which conjugate and lysis buffer was added. […] Data was transformed to % Delta F as described in manufacturer's guidelines and then transformed to percent activation of maximal native agonist response and analysed by 4-parameter logistic fit to determine EC50 values.
(§7) We used unconstrained 4 parameter logistic fit of data, curve mid-point to determine EC50. This was tested on two occasions, not two batches.

[2] = molecular target: T2, human GIP receptor (hGIPr) (Homo sapiens, UniProt P48546); assay: BSA-cAMP assay, cells expressing human GIP receptor; conditions: BSA-cAMP assay
T2 construct: expressed in transfected cells
T2 sequence (P48546 22-466): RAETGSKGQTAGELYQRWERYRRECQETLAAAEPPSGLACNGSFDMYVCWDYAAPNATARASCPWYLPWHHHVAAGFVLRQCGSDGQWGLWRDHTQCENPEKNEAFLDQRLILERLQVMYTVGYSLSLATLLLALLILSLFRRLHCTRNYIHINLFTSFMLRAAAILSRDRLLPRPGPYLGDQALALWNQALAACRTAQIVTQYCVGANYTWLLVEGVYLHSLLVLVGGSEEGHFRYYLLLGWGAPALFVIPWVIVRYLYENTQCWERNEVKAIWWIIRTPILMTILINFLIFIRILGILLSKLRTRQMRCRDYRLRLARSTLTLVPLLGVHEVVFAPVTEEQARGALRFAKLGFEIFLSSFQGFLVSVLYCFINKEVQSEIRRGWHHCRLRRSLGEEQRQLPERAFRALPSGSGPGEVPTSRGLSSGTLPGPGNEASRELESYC
Experimental: For human GIPr, two different lines were used, shown as “hGIPr” and “hGIPr (C3)” in Table 11.
as §1, §2, §3, §4, §5, §6, §7

[3] = molecular target: T3, human glucagon receptor (GCGr) (Homo sapiens, UniProt P47871); assay: BSA-cAMP assay, cells expressing human glucagon receptor
T3 construct: expressed in transfected cells; host or cells: HEK293s or CHO cells
T3 sequence (P47871 26-477): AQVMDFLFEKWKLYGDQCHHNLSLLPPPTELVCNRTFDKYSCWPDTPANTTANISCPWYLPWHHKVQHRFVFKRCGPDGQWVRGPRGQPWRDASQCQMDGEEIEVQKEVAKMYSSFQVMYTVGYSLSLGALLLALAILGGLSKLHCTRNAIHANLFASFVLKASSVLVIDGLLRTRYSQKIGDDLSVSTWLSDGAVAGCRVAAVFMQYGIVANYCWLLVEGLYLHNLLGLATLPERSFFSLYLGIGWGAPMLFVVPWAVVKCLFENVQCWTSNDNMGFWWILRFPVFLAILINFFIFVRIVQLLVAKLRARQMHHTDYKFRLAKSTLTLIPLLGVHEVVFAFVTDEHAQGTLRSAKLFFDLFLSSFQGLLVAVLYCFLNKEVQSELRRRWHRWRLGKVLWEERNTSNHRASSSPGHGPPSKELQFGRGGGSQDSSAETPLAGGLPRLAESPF
Experimental: as §1, §2, §3, §4, §5, §6, §7

[4] = molecular target: T4, mouse GIP receptor (mGIPr) (Mus musculus, UniProt Q0P543); assay: BSA-cAMP assay, cells expressing mouse GIP receptor; conditions: Batch 1; BSA-cAMP assay; read-out: mGIPr cAMP activity EC50
T4 construct: expressed in transfected cells; host or cells: HEK293s or CHO cells
T4 sequence (Q0P543 19-460): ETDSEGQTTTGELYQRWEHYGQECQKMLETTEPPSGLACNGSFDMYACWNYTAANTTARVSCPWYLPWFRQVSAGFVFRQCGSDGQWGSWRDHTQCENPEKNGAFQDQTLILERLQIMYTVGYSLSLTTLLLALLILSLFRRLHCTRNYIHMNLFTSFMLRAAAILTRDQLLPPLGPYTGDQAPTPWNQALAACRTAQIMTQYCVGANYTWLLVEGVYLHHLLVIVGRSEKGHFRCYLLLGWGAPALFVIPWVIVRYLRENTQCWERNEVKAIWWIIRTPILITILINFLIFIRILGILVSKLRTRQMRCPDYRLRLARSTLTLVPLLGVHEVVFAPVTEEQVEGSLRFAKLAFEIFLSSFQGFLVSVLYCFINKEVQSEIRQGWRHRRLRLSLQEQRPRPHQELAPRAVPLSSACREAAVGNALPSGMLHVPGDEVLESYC
Experimental: as §1, §2, §3, §4, §5, §6, §7
In order to be able to carry out in vivo studies in rodents, IP088 was tested for potency against the mouse receptors mGIPr and mGLP-1r as well as the rat receptors rGIPr and rGLP-1r, using cells expressing the respective receptors in the cAMP assay described above.

[5] = batch 1 unless a batch is given, read-out: cAMP activity hGLP1r (EC50)
[6] = batch 1 unless a batch is given, read-out: cAMP activity hGIPr (EC50)
[7] = Batch 1, read-out: hGLP1r cAMP activity EC50
[8] = Batch 1, read-out: hGCGr cAMP activity EC50

T1 sequence (P43220 24-463): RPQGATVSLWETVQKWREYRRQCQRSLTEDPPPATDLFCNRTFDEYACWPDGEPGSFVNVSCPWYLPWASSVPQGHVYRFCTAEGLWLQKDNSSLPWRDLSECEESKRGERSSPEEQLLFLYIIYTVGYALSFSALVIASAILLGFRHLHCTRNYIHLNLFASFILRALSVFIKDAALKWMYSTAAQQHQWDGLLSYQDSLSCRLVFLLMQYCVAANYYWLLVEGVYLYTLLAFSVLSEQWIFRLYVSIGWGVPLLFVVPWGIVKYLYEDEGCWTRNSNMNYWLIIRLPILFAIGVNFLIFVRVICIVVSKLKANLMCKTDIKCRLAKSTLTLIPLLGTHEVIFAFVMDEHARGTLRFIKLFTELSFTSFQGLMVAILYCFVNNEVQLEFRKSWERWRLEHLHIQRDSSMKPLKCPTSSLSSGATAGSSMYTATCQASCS

IP193 (HGEGTFTSDVSSYLEGQAAKEFIAWLVKGAAAGGSGSTASSGSGSATGGGGCPPCPAPEF; also: forms dimer via hinge disulfides)
EC50 [1, 5]: 0.064 nM | EC50 [2, 6]: 450 nM | EC50 ([3]; batch 1 unless a batch is given, read-out: cAMP activity hGCGr (EC50)): 780 nM

IP196 (HGEGTFTSDVSSYLEGQAAKEFIAWLVKGAAAGGSGSTASSGSGSATGGGGAPEF; /note=“Description of Artificial Sequence Synthetic Peptide-linker-hinge polypeptide”)
EC50 [1, 5]: 0.073 nM

IP231 (HGEGTFTSDVSSYLEEQAAKEFIAWLVKGGGGGGSGGGGSGGGGSGGGGSATHTCPPC; also: forms dimer via hinge disulfides)
EC50 [1, 5]: 0.067 nM

IP238 (HGEGTFTSDVSSYLEGQAAKEFIAWLVKGGGGGGSGGGGSGGGGSAESKYGPPCPPC; also: forms dimer via hinge disulfides)
EC50 [1, 5]: 0.058 nM | EC50 [2, 6]: 310 nM

IP319 (YSEGTFTSDYSKLLEAAAAAAFAAWLAAAAGGGGGSGGGGSGGGGSGGGGSACPPC)
EC50 ([1]; Batch 2, read-out: hGLP1r cAMP activity EC50): 170 nM | EC50 ([3]; Batch 2, read-out: hGCGr cAMP activity EC50): > 445 nM

IP353 (YSEGTFTSDYAAAAEAAAAAAFAAWLAKAAGGGGGSGGGGSGGGGSGGGGSACPPC)
EC50 [1, 7]: 20 nM | EC50 ([2]; Batch 1, read-out: hGIPr cAMP activity EC50): 1 nM | EC50 [3, 8]: > 3210 nM

IP407: Fc fusion, IgG1-TM, SEQ ID NO:384; agonist peptide YSEGTFTSDYSKLLEEEAIRLFIEWLLAGG (YSEGTFTSDYSKLLEEEAIRLFIEWLLAGGGGGGSGGGGSGGGGSGGGGSATHTCPPC)
EC50 [1, 7]: 0.25 nM | EC50 [3, 8]: > 163 nM | EC50 [4]: 2.3 nM

IP420: Fc fusion, IgG1-TM, SEQ ID NO:391; agonist peptide YSEGTFTSDYSKLLEEEATRLFIEWLLAGG (YSEGTFTSDYSKLLEEEATRLFIEWLLAGGGGGGSGGGGSGGGGSGGGGSATHTCPPC)
EC50 [1, 7]: 0.082 nM | EC50 [3, 8]: 21 nM | EC50 [4]: 2.6 nM
